From patent US20220177604A1
Changes are numbered by the printed parent chain.

B1: CL-2C mAb 1 (antibody, V domains shown)
VH: QVQLVQSGAEVMKPGSSVKVSCKASGYTFSWYWLEWVRQAPGHGLEWMGEIDPGTFTTHYNEKFKARVTFTADTSTSTAYMELSSLRSEDTAVYYCARFSHFSGSHYDYFDYWGQGTLVTVSS
VL: EIVMTQSPATLSVSPGERATLSCRASQHIGTNIHWYQQKPGQAPRLLIYYASESISGIPARFSGSGSGTEFTLTISSLQSEDFAVYYCQQSWSHPTTFGGGTKVEIK
B2: CL-2C mAb 2 (antibody, V domains shown)
VH: B1 VH with W33H, H59N, H106N, Y107H
VL: B1 VL
B3: CL-2C mAb 3 (antibody, V domains shown)
VH: B1 VH with W33H, H59N
VL: B1 VL
B4: CL-2C mAb 4 (antibody, V domains shown)
VH: B1 VH with W33H, H59N, S105H, H106N
VL: B1 VL
B5: CL-2C mAb 5 (antibody, V domains shown)
VH: B1 VH with H59N, H106N
VL: B1 VL
B6: CL-2C mAb 6 (antibody, V domains shown)
VH: B1 VH
VL: B1 VL with H28S, Y50H, Q89H, W92D, H94W
B7: CL-2C mAb 7 (antibody, V domains shown)
VH: B1 VH with W33H, H59N, H106N, Y107H
VL: B1 VL with H28S, Y50H, Q89H, W92D, H94W
B8: CL-2C mAb 8 (antibody, V domains shown)
VH: B1 VH with W33H, H59N
VL: B1 VL with H28S, Y50H, Q89H, W92D, H94W
B9: CL-2C mAb 9 (antibody, V domains shown)
VH: B1 VH with W33H, H59N, S105H, H106N
VL: B1 VL with H28S, Y50H, Q89H, W92D, H94W
B10: CL-2C mAb 10 (antibody, V domains shown)
VH: B1 VH with H59N, H106N
VL: B1 VL with H28S, Y50H, Q89H, W92D, H94W
B11: CL-2C mAb 11 (antibody, V domains shown)
VH: B1 VH
VL: B1 VL with H28S, Y50H
B12: CL-2C mAb 12 (antibody, V domains shown)
VH: B1 VH with W33H, H59N, H106N, Y107H
VL: B1 VL with H28S, Y50H
B13: CL-2C mAb 13 (antibody, V domains shown)
VH: B1 VH with W33H, H59N
VL: B1 VL with H28S, Y50H
B14: CL-2C mAb 14 (antibody, V domains shown)
VH: B1 VH with W33H, H59N, S105H, H106N
VL: B1 VL with H28S, Y50H
B15: CL-2C mAb 15 (antibody, V domains shown)
VH: B1 VH with H59N, H106N
VL: B1 VL with H28S, Y50H
B16: CL-2C mAb 16 (antibody, V domains shown)
VH: B1 VH
VL: B1 VL with H28S, Y50H, W92D
B17: CL-2C mAb 17 (antibody, V domains shown)
VH: B1 VH with W33H, H59N, H106N, Y107H
VL: B1 VL with H28S, Y50H, W92D
B18: CL-2C mAb 18 (antibody, V domains shown)
VH: B1 VH with W33H, H59N
VL: B1 VL with H28S, Y50H, W92D
B19: CL-2C mAb 19 (antibody, V domains shown)
VH: B1 VH with W33H, H59N, S105H, H106N
VL: B1 VL with H28S, Y50H, W92D
B20: CL-2C mAb 20 (antibody, V domains shown)
VH: B1 VH with H59N, H106N
VL: B1 VL with H28S, Y50H, W92D
B21: CL-2C mAb 26 (antibody, V domains shown)
VH: B1 VH
VL: B1 VL with H28S, Y50H, H94W
B22: CL-2C mAb 27 (antibody, V domains shown)
VH: B1 VH with W33H, H59N, H106N, Y107H
VL: B1 VL with H28S, Y50H, H94W
B23: CL-2C mAb 28 (antibody, V domains shown)
VH: B1 VH with W33H, H59N
VL: B1 VL with H28S, Y50H, H94W
B24: CL-2C mAb 29 (antibody, V domains shown)
VH: B1 VH with W33H, H59N, S105H, H106N
VL: B1 VL with H28S, Y50H, H94W
B25: CL-2C mAb 30 (antibody, V domains shown)
VH: B1 VH with H59N, H106N
VL: B1 VL with H28S, Y50H, H94W
B26: CL-2C mAb 31 (antibody, V domains shown)
VH: B1 VH
VL: B1 VL with H28S
B27: CL-2C mAb 32 (antibody, V domains shown)
VH: B1 VH with W33H, H59N, H106N, Y107H
VL: B1 VL with H28S
B28: CL-2C mAb 33 (antibody, V domains shown)
VH: B1 VH with W33H, H59N
VL: B1 VL with H28S
B29: CL-2C mAb 34 (antibody, V domains shown)
VH: B1 VH with W33H, H59N, S105H, H106N
VL: B1 VL with H28S
B30: CL-2C mAb 35 (antibody, V domains shown)
VH: B1 VH with H59N, H106N
VL: B1 VL with H28S
B31: CL-2C mAb 36 (antibody, V domains shown)
VH: B1 VH
VL: B1 VL with H28S, H94W
B32: CL-2C mAb 38 (antibody, V domains shown)
VH: B1 VH with W33H, H59N
VL: B1 VL with H28S, H94W
B33: CL-2C mAb 39 (antibody, V domains shown)
VH: B1 VH with W33H, H59N, S105H, H106N
VL: B1 VL with H28S, H94W
B34: CL-2C mAb 40 (antibody, V domains shown)
VH: B1 VH with H59N, H106N
VL: B1 VL with H28S, H94W
B35: 13E4-hIgG1-ABDEG (antibody, V domains shown)
VH: ELQLVESGGGLVQPGGSLRLSCAASGFTFSSYVMSWVRQAPGKGLEWVSSIYHDGSHTYYADFVKGRFTISRDNAKNTLYLQMNSLKSEDTAVYYCASGTSYSGSYYYTDPFFGSWGQGTQVTVSS
VL: HSAVTQPSALSVTLGQTAKITCQGGSLGSNYAYWYQQKPGQAPVLVIYDDDSRPSGIPERFSGSSSGGTATLTISGAQAEDEGDYYCQSADSNGNAVFGGGTHLTVL
B36: 18E2VLHis-ABDEG (antibody, V domains shown)
VH: B35 VH with E1Q
VL: NFMLTQPSALSVTLGQTARITCQGDRLGSRYIHWYQQKPPQAPVLVIHDDDRRPSGIPERFSGSSSGGTATLTISGAQAEDDGDYYCQSADSSGNPVFGGGTHLTVL
B37: 18E2VHHis-ABDEG (antibody, V domains shown)
VH: B35 VH with E1Q, S35H
VL: B36 VL with H33Y
B38: 18E2His2-hIgG1-ABDEG (antibody, V domains shown)
VH: B35 VH with E1Q, S35H
VL: B36 VL

Each binder was assayed against recombinant Motavizumab human IgE (rMota-hIgE) (human) (UniProt P01854) (assay: hIgE binding ELISA).
recombinant Motavizumab human IgE (rMota-hIgE) (human), sequence (P01854 other isoform, or with tags, fused parts or gaps limits assumed, form in doubt): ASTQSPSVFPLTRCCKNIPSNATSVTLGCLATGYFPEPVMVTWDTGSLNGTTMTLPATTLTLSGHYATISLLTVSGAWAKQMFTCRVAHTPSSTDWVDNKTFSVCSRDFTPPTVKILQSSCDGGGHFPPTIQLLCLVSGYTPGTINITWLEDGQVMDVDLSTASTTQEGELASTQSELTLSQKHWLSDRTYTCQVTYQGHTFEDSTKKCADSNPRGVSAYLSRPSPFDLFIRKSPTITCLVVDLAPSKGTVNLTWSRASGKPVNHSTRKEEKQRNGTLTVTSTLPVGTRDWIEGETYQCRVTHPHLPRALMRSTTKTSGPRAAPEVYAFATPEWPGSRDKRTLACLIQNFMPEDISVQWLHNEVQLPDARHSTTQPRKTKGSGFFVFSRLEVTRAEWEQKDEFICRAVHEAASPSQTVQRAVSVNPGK

Binder | Ratio OD450 pH 7.4/pH 6
B1 | 6.94
B2 | 7.11
B3 | 6.44
B4 | 5.26
B5 | 0.73
B6 | 10.2
B7 | 1.43
B8 | 1.12
B9 | 1.45
B10 | 2.77
B11 | 5.9
B12 | 1.54
B13 | 1.28
B14 | 1.53
B15 | 4.07
B16 | 2.24
B17 | 1.03

Binder | Ratio OD450 pH 7.4/pH 6
B18 | 0.97
B19 | 1.04
B20 | 5.46
B21 | 44.6
B22 | 19.4
B23 | 5.54
B24 | 15.3
B25 | 14
B26 | 10.9
B27 | 4.13
B28 | 2.61
B29 | 5.5
B30 | 0.69
B31 | 10.7
B32 | 4.48
B33 | 7.59
B34 | 1

These binders were tested against human IgE pre-bound on human basophils (human) (UniProt P01854) (assay: cell-based or functional assay).
human IgE pre-bound on human basophils (human), sequence (P01854 whole entry, chain 1 of 2): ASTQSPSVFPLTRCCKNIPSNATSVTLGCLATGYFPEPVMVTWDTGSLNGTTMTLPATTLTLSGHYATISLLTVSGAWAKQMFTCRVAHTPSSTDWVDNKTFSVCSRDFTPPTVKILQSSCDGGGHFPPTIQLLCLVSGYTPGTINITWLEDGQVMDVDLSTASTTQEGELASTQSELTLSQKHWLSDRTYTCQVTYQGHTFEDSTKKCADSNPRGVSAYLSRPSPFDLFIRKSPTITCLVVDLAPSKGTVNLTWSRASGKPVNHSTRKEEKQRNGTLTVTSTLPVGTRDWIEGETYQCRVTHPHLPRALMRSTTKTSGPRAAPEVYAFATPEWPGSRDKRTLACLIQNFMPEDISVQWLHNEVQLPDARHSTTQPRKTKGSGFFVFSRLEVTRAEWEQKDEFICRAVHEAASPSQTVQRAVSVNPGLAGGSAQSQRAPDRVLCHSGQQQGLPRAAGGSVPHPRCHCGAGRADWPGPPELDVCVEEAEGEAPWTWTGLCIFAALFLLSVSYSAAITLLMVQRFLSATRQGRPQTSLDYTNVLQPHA
human IgE pre-bound on human basophils (human), sequence (P12319 26-257, chain 2 of 2, further chain): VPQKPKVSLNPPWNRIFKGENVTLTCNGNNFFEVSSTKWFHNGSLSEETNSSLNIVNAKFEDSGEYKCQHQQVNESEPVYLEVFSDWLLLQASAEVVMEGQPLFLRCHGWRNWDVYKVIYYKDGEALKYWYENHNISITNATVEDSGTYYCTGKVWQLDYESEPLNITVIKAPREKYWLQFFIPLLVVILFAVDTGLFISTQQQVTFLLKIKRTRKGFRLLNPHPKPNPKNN

Binder | % CD63+ basophils at 20 µg/mL | % CD63+ basophils at 100 µg/mL | % of activated basophils (CCR3+CD63+) | SI (Stimulation Index) at 20 µg/mL | SI (Stimulation Index) at 100 µg/mL
B35 | 61.3% | 68.6% | 17% |  | 
B36 | 3.7% | 3.1% |  | 1.48 | 1.24
B37 | 3.5% | 4.8% |  | 1.4 | 1.92
B38 | 4% | 4.3% | 4% |  | 

What follows are binders tested against human immunoglobulin E (hIgE) (human) (UniProt P01854) (assay: competition ELISA, hIgE to coated hFcεRIα, pH 6).
human immunoglobulin E (hIgE) (human), sequence (P01854 whole entry): as the sequence (P01854 whole entry, chain 1 of 2) above

Binder | IC50
B35 | 0.0106 mg/L
B38 | 26.6 mg/L

The binders below were run against human immunoglobulin E (hIgE) (human) (UniProt P01854) (assay: SPR competition, hIgE over hFcεRIα chip, pH 7.4).

Binder | IC50
B35 | 3 mg/L
B38 | 5.8 mg/L

The binders below were run against human immunoglobulin E (hIgE) (human) (UniProt P01854) (assay: competition ELISA, hIgE to coated hFcεRIα, pH 7.4).

Binder | IC50
B35 | 0.0065 mg/L
B38 | 1.49 mg/L

Each binder was assayed against human immunoglobulin E (hIgE) (human) (UniProt P01854) (assay: SPR competition, hIgE over hFcεRIα chip, pH 6 (text: pH 5.5)).

Binder | IC50
B35 | 3.2 mg/L
B38 | 7320 mg/L

The binders below were run against human immunoglobulin E (hIgE) (human) (UniProt P01854) (assay: flow cytometry: inhibition of human IgE binding to hFcεRIα+ bone-marrow-derived mast cells, residual IgE staining (MFI); table head on the sheet reads EC50, the text calls the values IC50; no unit in the table, x axis in µg/ml).

Binder | IC50
B35 | 1.36 mg/L
B38 | 208 mg/L
